What was measured:
[1] = biological target: T1, Anti-CD28 Fab (SEQ ID NOs: 202, 203); assay: phage binding ELISA, Fab on plate;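 note: clonal phage supernatant ELISA, wells preincubated with CD28 antigen or blocking buffer only, then bound phage detected using HRP-linked anti-M13 antibody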
T1 construct: biotinylated and captured on neutravidin coated plates in the phage ELISA

[2] = biological target: T1, Anti-CD28 Fab (SEQ ID NOs: 202, 203); assay: phage binding ELISA, Fab on plate, CD28 as competitor
Experimental: (§1) After panning, phage infected bacteria were plated out and colonies picked into 96 well blocks. Clonal phage was then amplified and separated from bacterial cells via centrifugation.
(§2) Clonal phage were harvested as crude supernatants and screened via standard ELISAs. […] Prior to the addition of clonal phage, wells were incubated with blocking buffer and CD28 antigen or blocking buffer alone. Without washing or aspirating, clonal phage supernatants were then added to the wells and incubated for a short time. Wells were then washed followed by detection of bound phage using a horse radish conjugated anti-M13 antibody. Clonal phage of interest were then sent for sequence analysis.

[3] = biological target: anti-CD28 Fab (SEQ ID NOs: 202, 203); assay: phage binding ELISA; biotinylated anti-CD28 Fab captured on neutravidin plate, clonal phage supernatant, anti-M13-HRP detection;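 note: before crude clonal phage supernatants were added, wells were preincubated with CD28 antigen in blocking buffer or with blocking buffer only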
Sequence of anti-CD28 Fab (SEQ ID NOs: 202, 203) (VH, as listed by the source, chain 1 of 2): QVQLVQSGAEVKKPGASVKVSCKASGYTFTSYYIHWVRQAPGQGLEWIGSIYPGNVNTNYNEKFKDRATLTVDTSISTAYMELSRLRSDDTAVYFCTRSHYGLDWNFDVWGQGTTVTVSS
Sequence of anti-CD28 Fab (SEQ ID NOs: 202, 203) (VL, as listed by the source, chain 2 of 2): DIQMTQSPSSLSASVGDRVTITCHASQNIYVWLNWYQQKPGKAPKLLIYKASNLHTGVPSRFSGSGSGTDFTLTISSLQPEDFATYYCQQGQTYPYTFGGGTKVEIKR
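Throughout, for Anti-CD28 Fab signal in the presence of CD28: coated wells pre-incubated with CD28 antigen or with blocking buffer only, then crude clonal phage supernatant added briefly, and retained phage read out via HRP-linked anti-M13 antibody.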
Experimental: as §1, §2

T1 sequence (VH, as listed by the source, chain 1 of 2): as the sequence (VH, as listed by the source, chain 1 of 2) above
T1 sequence (VL, as listed by the source, chain 2 of 2): as the sequence (VL, as listed by the source, chain 2 of 2) above

| Binder | Anti-CD28 Fab (SEQ ID NOs: 202, 203) signal [1] | Anti-CD28 Fab signal in the presence of CD28 [2] | Anti-CD28 Fab (SEQ ID NOs: 202, 203) signal [3] |
| --- | --- | --- | --- |
| TCSAGFSYSWPACF [Phage-1000] | 1.86 | 0.07 | – |
| RCAAGVMYDWPVCL [Phage-1043] | 1.7 | 0.07 | – |
| TCSAGATWPWPICL [Phage-997] | 1.89 | 0.08 | – |
| TCAAGAMWQWPVCL [Phage-1010] | 1.81 | 0.06 | – |
| TCSAGATYNWPWCF [Phage-1047] | 1.68 | 0.05 | – |
| TCSAGAHYVWPMCF [Phage-994] | 1.91 | 0.17 | – |
| LCRAGAMWPWPTCL [Phage-1005] | 1.83 | 0.06 | – |
| TCSAGATYIWPMCF [Phage-995] | 1.9 | 0.08 | – |
| TCSAGAHFAWPMCF [Phage-1045] | 1.69 | 0.07 | – |
| TCRAGATYNWPFCL [Phage-996] | 1.9 | 0.07 | – |
| SCAAVFSFPWSPCL [Phage-999] | 1.87 | 0.08 | – |
| TCAAGAMWVWPTCL [Phage-1052] | 1.66 | 0.07 | – |
| QCAAGASYPWPVCL [Phage-1008] | 1.82 | 0.07 | – |
| PCAAGAHYVWPVCF [Phage-1221] | – | – | 0.97 |
| SCAAGAAYPWPACL [Phage-1013] | 1.8 | 0.06 | – |
| LCAAVFAYTWPMCF [Phage-1220] | – | – | 0.98 |
| TCSAGAHYEWPYCL [Phage-1007] | 1.82 | 0.11 | – |

| Binder | Anti-CD28 Fab (SEQ ID NOs: 202, 203) signal [1] | Anti-CD28 Fab signal in the presence of CD28 [2] | Anti-CD28 Fab (SEQ ID NOs: 202, 203) signal [3] |
| --- | --- | --- | --- |
| TCTAGFSYNWPMCF [Phage-1001] | 1.85 | 0.06 | – |
| TCSAGASYPWPVCL [Phage-1048] | 1.67 | 0.07 | – |
| LCSAGAMYPWPLCY [Phage-1051] | 1.66 | 0.08 | – |
| SCAAGATYTWPMCI [Phage-1054] | 1.66 | 0.07 | – |
| SCAAGAHYVWPFCF [Phage-1046] | 1.68 | 0.08 | – |
| TCSAGATYSWPQCL [Phage-1003] | 1.84 | 0.07 | – |
| LCAAGANYPWPACL [Phage-1053] | 1.66 | 0.07 | – |
| TCSAGATFHWPQCF [Phage-1006] | 1.83 | 0.08 | – |
| LCKPGVPYQWPTCF [Phage-1009] | 1.82 | 0.05 | – |
| TCAAGASYPWPACL [Phage-998] | 1.89 | 0.09 | – |
| TCSAGAHWTWPLCF [Phage-1044] | 1.69 | 0.06 | – |
| TCSAGATYAWPACY [Phage-1002] | 1.84 | 0.14 | – |
| TCAAGAGWAWPFCF [Phage-1056] | 1.65 | 0.09 | – |
| SCAAGLSYPWPDCL [Phage-1055] | 1.65 | 0.07 | – |
| PCSAGATYAWLYCV [Phage-1011] | 1.81 | 0.06 | – |
| TCSAGAYYAWPVCL [Phage-1004] | 1.84 | 0.08 | – |
| WCAAGAMYPWPLCL [Phage-1049] | 1.67 | 0.06 | – |

Reference: patent US20260274955A1 (JANUX THERAPEUTICS, published 2026)
